This is an account of results in PMC10878525.

pKd: −log10 of the molar value. Like-named read-outs stand apart in the source and are kept apart here.

Assay [1] addresses chicken sodium hydrogen exchanger isoform 1 (chNHE1), expressed on 293T cells (pCAF-chNHE1) (chicken). Briefly: flow cytometry on cells; virus-cell binding: 293T cells transfected with pCAF-chNHE1 incubated with 50 MOI rescued virus 1 h on ice; stained with 4A3 anti-gp85 and FITC secondary, anti-FLAG co-staining.
Assay [2] has the same target. Kind of assay: virus-cell binding assay read by RT-qPCR; 293T cells transfected with pCAF-chNHE1, exposed to rescued virus at MOI 50 for 1 h at 4 °C, washed five times; gp85 gene RT-qPCR against human GAPDH. A general note: In qPCR the cycle at which signal appears reflects the starting amount.
Assay [3] has the same target. Briefly: flow cytometry on cells.
Assay [4] addresses soluble chECL1 protein (chicken). Kind of assay: SPR; Biacore 8K; chECL1 immobilised on a CM5 chip to about 100 RU; serial dilutions of gp85 flowed; 10 mM HEPES pH 7.2, 150 mM NaCl, 0.05% Tween-20; 1:1 binding model. (In general: SPR reads the build-up and loss of mass on a sensor chip optically.)
For assay [5], the target named is chECL1, first extracellular loop of chNHE1, with a C-terminal HA tag (chicken). Briefly: co-IP.
For assay [6], the target named is soluble chECL1 protein (chicken). Briefly: SPR; Biacore 8K; chECL1 immobilised on a CM5 chip to about 100 RU; serial dilutions of gp85 flowed; 10 mM HEPES pH 7.2, 150 mM NaCl, 0.05% Tween-20; 1:1 binding model. The source holds these as a separate data set.
Assay [7] deals with chicken sodium hydrogen exchanger isoform 1 (chNHE1), expressed on 293T cells (pCAF-chNHE1) (chicken). Briefly: flow cytometry on cells; protein-cell binding assay: purified gp85-Fc (0.5 mL of 200 ng/uL; 300, 200 and 50 ng/uL in Fig 2A) incubated 1 h on ice with 293T cells transfected with pCAF-chNHE1; anti-human IgG (Fc specific)-FITC, anti-FLAG co-staining. (Flow cytometry measures light scatter and fluorescence of single cells or particles in a stream.)

Assay [8] has as its target chECL1, first extracellular loop of chNHE1, with a C-terminal HA tag (chicken). Briefly: co-IP; 293T cells co-transfected with chECL1 (HA) and pCAF-gp85 plasmids for 48 h; lysates on anti-HA-agarose; blot with 4A3 and anti-HA; gp85 intensities normalised to input.

In assay [1], “Env of the recombinant virus rHPRS103-N123I (N123I in gp85), on virions (complex)” came in with a fold binding capacity against rHPRS103 (FACS) of 1.27 fold. This substance also registered a fold binding capacity against rHPRS103 (RT-qPCR) in assay [2] of 7.14 fold.

As to “Env of the recombinant virus rHPRS/JL3-1 (gp85 of JL08CH3-1 on the HPRS103 backbone), on virions (complex)”, in assay [1], the fold binding capacity against rHPRS103 (FACS) was found to be 1.29 fold. The substance further had a fold binding capacity against rHPRS103 (RT-qPCR) in assay [2] of 7.96 fold.

By pKd is commonly meant the negative decadic logarithm of the Kd, by convention in mol/L. A higher pKd goes with a low Kd. In the case of “JL08CH3-1-gp85 (CAG-JL3-1-gp85-Fc) (Fc fusion)”, in assay [3], the binding rate at 50 ng/μL came out at 58.5%, the binding rate at 200 ng/μL is 85% and the binding rate at 300 ng/μL came to 87.9%. This substance also had a pKd in assay [4] of 6.96.

“JL08CH3-1-gp85 (pCAF-JL3-1-gp85) (natural protein)” came in with a fold binding capacity against HPRS103-gp85 in assay [5] of 1.3 fold.

Take “N123I-gp85 (CAG-N123I-gp85-Fc) (Fc fusion)”: the pKd in assay [6] was 6.87. In addition, the fold binding capacity against HPRS103-gp85 in assay [7] was determined as 1.3 times.

“N123I-gp85 (pCAF-N123I-gp85) (natural protein)” yielded a fold binding against HPRS103-gp85 in assay [8] of 1.6 fold.

In assay [7], “N123I/V128F mutant gp85 (on CAG-sgp85-Fc backbone) (Fc fusion)” gave a fold binding capacity against HPRS103-gp85 of 1.3 times.

On to “soluble HPRS103-gp85 (CAG-sgp85-Fc) (Fc fusion)”, for which, in assay [3], the binding rate at 50 ng/μL was found to be 9.7%, the binding rate at 200 ng/μL is 59.2% and the binding rate at 300 ng/μL was determined as 70%. The pKd in assay [4] is 6.23. The same substance had a pKd in assay [6] of 6.26.
